Patent publication US20140341881A1 (DERMADIS, published 2014)
Where two headings read alike, the source gives them in different places.

Assays:
human kallikrein 2 (hK2) [1] = target: T1, human kallikrein 2 (hK2) (human, UniProt P20151 25-261); test: cell-based or functional assay
[2] = target: T2, prostate specific antigen (PSA, hK3) (human, UniProt P07288 25-261); test: cell-based or functional assay
human kallikrein hK1 = human kallikrein hK1 (human, UniProt P06870 25-262); test: cell-based or functional assay
[3] = target: T3, human plasma kallikrein (PK) (human, UniProt P03952 20-638); test: cell-based or functional assay
[4] = target: urokinase plasminogen activator (uPA) (UniProt P00749 21-431, limits assumed); test: cell-based or functional assay
[5] = target: T3, human plasma kallikrein (PK); test: progress curve, ka with PK against ka with hK2
Protocol: Under these conditions, a fixed amount of enzyme (2 nM) was mixed with different concentrations of inhibitor (0-800 nM) and an excess of substrate (10 μM). Each reaction was made in reaction buffer (50 mM Tris pH 7.5, 150 mM NaCl, 0,05% Triton X-100, 0.01% BSA) at 25° C. for 45 min and the rate of product formation was measured using a FLₓ800 fluorescence 96-well microplate reader (Biotek, USA). In this model, inhibition is considered to be irreversible over the course of reaction and the progress of enzyme activity is expressed by product formation (P), beginning at a rate (vz) and is inhibited over time (t) at a first-order rate (kobs), rate constant that is dependent only on inhibitor concentration.
The rate of inhibitory reaction with variant ACTs was determined for each protease showing reactivity with these inhibitors. To that end, interaction of hK2 and recombinant serpins was measured under pseudo-first order conditions using progress curve method. hK2 (2 nM) and substrate Z-FR-AMC […] were added to varying amounts (20 n-800 nM) of inhibitors rACT_{8.20}, rACT_{5.18} and inhibitors rACT_{6.2}, rACT_{8.3}, rACT_{6.7}, rACT_{6.1} (data not shown). […] After determination of kobs, association constants (ka) were calculated using Kₘ of the proteases for their corresponding substrates (table VI). […]

human kallikrein 2 (hK2) [6] = target: T1, human kallikrein 2 (hK2); test: progress curve, pseudo-first order, fluorogenic substrate
[7] = target: T3, human plasma kallikrein (PK); test: as above
human kallikrein 2 (hK2) [8] = target: T1, human kallikrein 2 (hK2); test: residual enzyme activity against [I]o/[E]o, fluorogenic substrate
[9] = target: T3, human plasma kallikrein (PK); test: as above
[10] = target: T4, human chymotrypsin (Chtr) (human, UniProt P17538 19-263); test: progress curve
[11] = target: T3, human plasma kallikrein (PK); test: progress curve
[12] = target: T5, human kallikrein 14 (hK14) (human, UniProt Q9P0G3 25-251, limits assumed); test: progress curve
T5 construct: range counted on GenBank AAK48524 (printed), which may differ from the UniProt numbering; also called recombinant hK14
T5 sequence (looked up): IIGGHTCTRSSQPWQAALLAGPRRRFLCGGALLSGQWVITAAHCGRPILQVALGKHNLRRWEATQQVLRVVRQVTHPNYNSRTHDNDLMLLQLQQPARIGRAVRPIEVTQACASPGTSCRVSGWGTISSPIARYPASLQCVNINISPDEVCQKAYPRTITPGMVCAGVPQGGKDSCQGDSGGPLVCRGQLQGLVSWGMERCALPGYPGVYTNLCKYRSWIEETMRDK

[13] = target: T4, human chymotrypsin (Chtr); test: cell-based or functional assay
[14] = target: T3, human plasma kallikrein (PK); test: cell-based or functional assay; remark: listed apart in the source
[15] = target: T6, human neutrophil elastase (HNE) (human, UniProt P08246 30-247, limits assumed); test: cell-based or functional assay
T6 sequence (looked up): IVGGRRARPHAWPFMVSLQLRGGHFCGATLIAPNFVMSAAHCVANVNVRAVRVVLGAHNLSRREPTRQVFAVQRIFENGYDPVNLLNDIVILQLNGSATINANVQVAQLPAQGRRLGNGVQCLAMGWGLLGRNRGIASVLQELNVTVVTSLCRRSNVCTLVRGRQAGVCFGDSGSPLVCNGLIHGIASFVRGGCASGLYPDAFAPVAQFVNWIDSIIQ

thrombin = test: cell-based or functional assay
[16] = target: T5, human kallikrein 14 (hK14); test: cell-based or functional assay
human kallikrein 8 (hK8) [17] = target: T7, human kallikrein 8 (hK8) (human, UniProt O60259 33-260); test: cell-based or functional assay
T7 sequence (looked up): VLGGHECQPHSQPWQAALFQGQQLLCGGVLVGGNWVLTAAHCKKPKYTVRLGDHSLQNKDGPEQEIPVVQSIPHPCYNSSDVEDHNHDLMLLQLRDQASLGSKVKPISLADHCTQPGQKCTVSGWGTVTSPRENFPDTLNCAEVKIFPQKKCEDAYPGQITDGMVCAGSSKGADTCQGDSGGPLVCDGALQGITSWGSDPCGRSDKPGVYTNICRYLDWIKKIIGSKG

[18] = target: T4, human chymotrypsin (Chtr); test: residual enzyme activity against [I]o/[E]o
[19] = target: T3, human plasma kallikrein (PK); test: residual enzyme activity against [I]o/[E]o
[20] = target: T5, human kallikrein 14 (hK14); test: residual enzyme activity against [I]o/[E]o
human kallikrein 8 (hK8) [21] = target: T7, human kallikrein 8 (hK8); test: residual enzyme activity against [I]o/[E]o
human kallikrein 2 (hK2) [22] = target: T1, human kallikrein 2 (hK2); test: Western blot, 1 µg inhibitor with 100 ng kallikrein, 1 h at 37 C
Protocol: (§1) Analysis of the inhibitory reaction between rACTs and the human kallikreins were analysed by Western Blot (data not shown). For each variants of ACT, 1 μg of inhibitor was incubated with 100 ng of either hK2 or hK3 during 1 hour at 37° C. under physiological conditions.

[23] = target: T2, prostate specific antigen (PSA, hK3); test: as above
Protocol: as §1

T3 sequence (P03952 20-638 limits assumed): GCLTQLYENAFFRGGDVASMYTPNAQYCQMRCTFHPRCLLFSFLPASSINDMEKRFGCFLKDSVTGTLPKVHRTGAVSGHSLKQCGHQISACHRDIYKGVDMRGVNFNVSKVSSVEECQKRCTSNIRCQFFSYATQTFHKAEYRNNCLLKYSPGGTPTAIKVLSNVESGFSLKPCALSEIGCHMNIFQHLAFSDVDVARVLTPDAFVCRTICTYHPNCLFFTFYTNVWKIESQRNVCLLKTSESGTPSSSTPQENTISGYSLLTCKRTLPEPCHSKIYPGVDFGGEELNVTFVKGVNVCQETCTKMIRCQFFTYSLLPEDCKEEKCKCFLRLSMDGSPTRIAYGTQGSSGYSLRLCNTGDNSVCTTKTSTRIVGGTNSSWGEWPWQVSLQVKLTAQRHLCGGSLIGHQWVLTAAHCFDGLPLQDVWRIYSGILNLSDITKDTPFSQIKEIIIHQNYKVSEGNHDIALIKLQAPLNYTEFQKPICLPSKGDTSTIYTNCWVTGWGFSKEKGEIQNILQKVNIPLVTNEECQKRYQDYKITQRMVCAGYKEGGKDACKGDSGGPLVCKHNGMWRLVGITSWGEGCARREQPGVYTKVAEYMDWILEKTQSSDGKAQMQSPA
T4 sequence (P17538 19-263): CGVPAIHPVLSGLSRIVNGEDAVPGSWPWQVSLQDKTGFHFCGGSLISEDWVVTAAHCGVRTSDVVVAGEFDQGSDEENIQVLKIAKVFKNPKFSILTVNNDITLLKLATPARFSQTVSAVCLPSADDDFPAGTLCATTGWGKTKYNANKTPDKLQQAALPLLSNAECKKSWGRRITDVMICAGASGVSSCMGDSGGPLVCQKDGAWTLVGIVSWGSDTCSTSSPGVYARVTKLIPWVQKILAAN

B1: rACT6.7 (other)
chain: MRGSHHHHHHSRHPNSPLDEENLTQENQDRGTHVDLGLASANVDFAFSLYKQLVLKAPDKNVIFSPLSISTALAFLSLGAHNTTLTEILKGLKFNLTETSEAEIHQSFQHLLRTLNQSSDELQLSMGNAMFVKEQLSLLDRFTEDAKRLYGSEAFATDFQDSAAAKKLINDYVKNGTRGKITDLIKDLDSQTMMVLVNYIFFKAKWEMPFDPQDTHQSRFYLSKKKWVMVPMMSLHHLTIPYFRDEELSCTVVELKYTGNASALFILPDQDKMEEVEAMLLPETLKRWRDSLEFREIGELYLPKFSISRDYNLNDILLQLGIEEAFTSKADLSGITGARNLAVSQVVHKAVLDVFEEGTEASAATAVKIKLRTTLVETRTIVRFNRPFLMIIVPTDTQNIFFMSKVTNPKQA
notes: recombinant ACT variant, RSL substrate peptide KLRTT; N-terminal His tag, E. coli TG1; also called MD67; MD 67
Human kallikrein 2 (hK2) [1]
  INHIBITION %: 100%
[2]
  INHIBITION %: 0%
Human kallikrein hK1
  INHIBITION %: 0%
[3]
  INHIBITION %: 36%
[4]
  INHIBITION %: 0%
[5]
  fold lower ka than with hK2: 45 fold
Human kallikrein 2 (hK2) [6]
  kon: 8990 M⁻¹ s⁻¹
[7]
  kon: 201 M⁻¹ s⁻¹
Human kallikrein 2 (hK2) [8]
  SI (stoichiometry of inhibition): 9
[9]
  SI (stoichiometry of inhibition): 277

B2: rACTPCI (other)
chain: MRGSHHHHHHSRHPNSPLDEENLTQENQDRGTHVDLGLASANVDFAFSLYKQLVLKAPDKNVIFSPLSISTALAFLSLGAHNTTLTEILKGLKFNLTETSEAEIHQSFQHLLRTLNQSSDELQLSMGNAMFVKEQLSLLDRFTEDAKRLYGSEAFATDFQDSAAAKKLINDYVKNGTRGKITDLIKDLDSQTMMVLVNYIFFKAKWEMPFDPQDTHQSRFYLSKKKWVMVPMMSLHHLTIPYFRDEELSCTVVELKYTGNASALFILPDQDKMEEVEAMLLPETLKRWRDSLEFREIGELYLPKFSISRDYNLNDILLQLGIEEAFTSKADLSGITGARNLAVSQVVHKAVLDVFEEGTEASAATAVKITFRSALVETRTIVRFNRPFLMIIVPTDTQNIFFMSKVTNPKQA
notes: E. coli TG1, Ni-NTA purified; also called MDCI; MD CI
[10]
  kon: 86200 M⁻¹ s⁻¹
[11]
  kon: 25900 M⁻¹ s⁻¹
[12]
  kon: 287000 M⁻¹ s⁻¹
[13]
  INHIBITION %: 98%
[14]
  INHIBITION %: 100%
[15]
  INHIBITION %: 0%
thrombin
  INHIBITION %: 0%
[16]
  INHIBITION %: 100%
Human kallikrein 8 (hK8) [17]
  INHIBITION %: ~25%
[18]
  SI (stoichiometry of inhibition): 1
[19]
  SI (stoichiometry of inhibition): 4.6
[20]
  SI (stoichiometry of inhibition): 3.2
Human kallikrein 8 (hK8) [21]
  SI (stoichiometry of inhibition): ~180
Human kallikrein 2 (hK2) [22]
  binding result: binds
[23]
  binding result: binds
